Assay results: patent publication US20090291081A1 (AbbVie / Abbott, published 2009)
Where “and” joins values, the source holds several entries; their conditions need not be identical. Equal values may be shown once. Read-outs that look alike come from different tables or passages of the source. Blank lines part the entries; values can stand above or below the binder they belong to.

Assays:
[1] = target: T1, human IL-1α (human, UniProt P01583 113-271); experiment: BIAcore kinetic analysis of the dAb
T1 construct: also called hIL-1α; rhIL-1 alpha
T1 sequence (looked up): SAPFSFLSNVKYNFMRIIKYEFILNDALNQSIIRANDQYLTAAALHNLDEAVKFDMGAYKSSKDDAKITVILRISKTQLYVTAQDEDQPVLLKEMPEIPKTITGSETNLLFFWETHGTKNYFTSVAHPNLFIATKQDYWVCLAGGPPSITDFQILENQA

[2] = target: T1, human IL-1α; experiment: cell-based or functional assay
[3] = target: T2, human IL-1β (human, UniProt P01584 117-269); experiment: BIAcore kinetic analysis of the dAb
T2 construct: also called hIL-1β; rhIL-1 beta

[4] = target: T2, human IL-1β; experiment: cell-based or functional assay
[5] = target: T2, human IL-1β; experiment: BIAcore kinetic analysis of the dAb; remark: listed apart in the source
[6] = target: T1, human IL-1α; experiment: BIAcore kinetic analysis of the dAb; remark: listed apart in the source
[7] = target: T1, human IL-1α; experiment: BIAcore, IL-1α coated chip, dAb flowed over
[8] = target: T2, human IL-1β; experiment: BIAcore kinetic analysis of the dAb; remark: listed apart in the source
[9] = target: T2, human IL-1β; experiment: cell-based or functional assay; remark: listed apart in the source
[10] = target: T1, human IL-1α; experiment: BIAcore, purified dAb
[11] = target: T1, human IL-1α; experiment: cell-based or functional assay; remark: listed apart in the source
[12] = target: T1, human IL-1α; experiment: method not given
[13] = target: T1, human IL-1α; experiment: Biacore, IgG captured by goat anti-human IgG Fc; rhIL-1 alpha 100 nM then rhIL-1 beta 200 nM
Description: (§1) The antibody (1-5 ug/ml) was first captured on a goat anti human IgG FC surface.

[14] = target: T2, human IL-1β; experiment: as above
Description: as §1

[15] = target: T1, human IL-1α; experiment: Biacore, IgG captured by goat anti-human IgG Fc
[16] = target: T2, human IL-1β; experiment: Biacore, IgG captured by goat anti-human IgG Fc
[17] = target: T1, human IL-1α; experiment: cell-based or functional assay; remark: listed apart in the source
[18] = target: T2, human IL-1β; experiment: cell-based or functional assay; remark: listed apart in the source
[19] = target: T1, human IL-1α; experiment: cell-based or functional assay; remark: listed apart in the source
[20] = target: T2, human IL-1β; experiment: cell-based or functional assay; remark: listed apart in the source
[21] = target: T2, human IL-1β; experiment: Biacore, IgG captured by goat anti-human IgG Fc; rhIL-1 beta followed by rhIL-1 alpha
Description: as §1

[22] = target: T1, human IL-1α; experiment: BIAcore kinetic analysis of the dAb; remark: listed apart in the source
[23] = target: T1, human IL-1α; experiment: cell-based or functional assay; remark: listed apart in the source
[24] = target: T1, human IL-1α; experiment: IL-1 Receptor Binding Assay
[25] = target: T1, human IL-1α; experiment: cell-based or functional assay; remark: listed apart in the source
[26] = target: T1, human IL-1α; experiment: BIAcore, purified dAb; remark: listed apart in the source
[27] = target: T2, human IL-1β; experiment: BIAcore kinetic analysis of the dAb; remark: listed apart in the source
[28] = target: T2, human IL-1β; experiment: BIAcore kinetic analysis of the dAb; remark: listed apart in the source
[29] = target: T2, human IL-1β; experiment: BIAcore kinetic analysis of the dAb; remark: listed apart in the source

B1: ABT1-98 (other)
VH: EVQLLESGGGLVQPGGSLRLSCAASGFTFDGYIMSWVRQAPGKGLEWVSTISPLGSVTYYADSVKGRFTISRDNSKNTLYLQMNSLRAEDTAVYYCAKKGPWFDYWGQGTLVTVSS
notes: dAb, VH, to IL-1α; also called dAb ABT1-98
Kd [1]: 13 nM
koff [1]: 0.027 s⁻¹
kon [1]: 2e+06 M⁻¹ s⁻¹
MRC5 ND10 [2]: 10 nM
MRC5 ND50 [2]: 30 nM

B6: ABT1-95-3 (other)
VL: DIQMTQSPSSLSASVGDRVTITCRASQPIHGNLRWYQQKPGKAPKLLIYSSSYLQSGVPSRFSGSGSGTDFTLTISSLQPEDFATYHCQQGYRWPVTFGQGTKVEIKR
notes: dAb, Vκ, to IL-1α
Kd [10]: 5.4 nM
MRC5 ND50 [11]: 50 nM
Kd [7]: 7 to 12 nM
Kd [12]: 5 to 10 nM

B9: ABT1-95-8 (other)
VL: DIQMTQSPSSLSASVGDRVTITCRASQPIQGNLRWYQQKPGKAPKLLIYSSSYLERGVPSRFSGSGSGTDFTLTISSLQPEDFATYHCQQGYRWPVTFGQGTKVEIKR
notes: dAb, Vκ, to IL-1α
MRC5 ND50 [11]: 0.9 nM
IC50 [24]: 1 nM
Kd [12]: 0.9 nM

B10: ABT1-95-14 (other)
VL: DIQMTQSPSSLSASVGDRVTITCRASQPIVKNLRWYQQKPGKAPKLLIYSSSYLERGVPSRFSGSGSGTDFTLTISSLQPEDFATYHCQQGYRWPVTFGQGTKVEIKR
notes: dAb, Vκ, to IL-1α
ND50 [25]: 250 pM
MRC5 ND50 [11]: 0.25 nM
Kd [26]: 1.2 nM

B11: ABT1-95-15 (other)
VL: DIQMTQSPSSLSASVGDRVTITCRASQPIVRNLRWYQQKPGKAPKLLIYSSSYLEPGVPSRFSGSGSGTDFTLTISSLQPEDFATYHCQQGYRWPVTFGQGTKVEIKR
notes: dAb, Vκ, to IL-1α
ND50 [25]: 45 pM
Kd [26]: 0.67 nM

B12: ABT1-95-13 (other)
VL: DIQMTQSPSSLSASVGDRVTITCRASQPIVRNLRWYQQKPGKAPKLLIYSSSYLERGVPSRFSGSGSGTDFTLTISSLQPEDFATYHCQQGYRWPVTFGQGTKVEIKR
notes: dAb, Vκ, to IL-1α
ND50 [25]: 120 pM
MRC5 ND50 [11]: 0.11 nM
Kd [26]: 0.95 nM

B13: ABT2-46 (other)
VL: DIQMTQSPSSLSASVGDRVTITCRASQSIIEWLSWYQQKPGKAPKLLIYRTSVLQSGVPSRFSGSGSGTDFTLTISSLQPEDFATYYCQQNEFWPFTFGQGTKVEIKR
notes: dAb, Vκ, to IL-1β; also called dAb ABT2-46
MRC5 ND10 [4]: 70 nM
MRC5 ND50 [4]: 386 nM
Kd [27]: 2800 nM
koff [27]: 0.063 s⁻¹
kon [27]: 23000 M⁻¹ s⁻¹

Continued, values first:

Kd [3]: 110 nM
koff [3]: 0.0031 s⁻¹
kon [3]: 29000 M⁻¹ s⁻¹
MRC5 ND10 [4]: 150 nM
MRC5 ND50 [4]: 250 nM
B2: ABT2-108 (other)
VH: EVQLLESGGGLVQPGGSLRLSCAASGFTFAEYTMMWVRQAPGKGLEWVSRIGQDGKNTYYADSVKGRFTISRDNSKNTLYLQMNSLRAEDTAVYYCAKYTGRVGVHHLFDYWGQGTLVTSS
notes: dAb, VH, to IL-1β

MRC5 ND10 [4]: 100 nM
MRC5 ND50 [4]: 800 nM
Kd [5]: 930 nM
koff [5]: 0.075 s⁻¹
kon [5]: 81000 M⁻¹ s⁻¹
B3: ABT2-13 (other)
VH: EVQLLESGGGLVQPGGSLRLSCAASGFTFRDYVMYWARQAPGKGLEWVSRIDPMGSSTYYADSVKGRFTISRDNSKNTLYLQMNSLRAEDTAVYYCAKPEGNFDYWGQGTLVTVSS
notes: dAb, VH, to IL-1β; also called dAb ABT2-13

Kd [6]: 42 nM
koff [6]: 0.28 s⁻¹
kon [6]: 6.6e+06 M⁻¹ s⁻¹
Kd [7]: 40 to 86 nM
MRC5 ND10 [2]: 9 nM
MRC5 ND50 [2]: 50 nM
B4: ABT1-122 (other)
VL: DIQMTQSPSSLSASVGDRVTITCRASQPIWTELNWYQQKPGKAPKLLIYGSSSLQSGVPSRFSGSGSGTDFTLTISSLQPEDFATYYCQQFAYFPATFGQGTKVEIKR
notes: dAb, Vκ, to IL-1α

Kd [8]: 97 nM
koff [8]: 0.02 s⁻¹
kon [8]: 250000 M⁻¹ s⁻¹
MRC5 ND50 [9]: 266 nM
MRC5 ND10 [4]: 100 nM
MRC5 ND50 [4]: 266 nM
B5: ABT2-65 (other)
VH: EVQLLESGGGLVQPGGSLRLSCAASGFTFEDYQMGWVRQAPGKGLEWVSSISAMGNRTYYADSVKGRFTISRDDSKNTLYLQMNSLRAEDTAVYYCAKNLVRTQSKMWMFDYWGQGTLVTVSS
notes: dAb, VH, to IL-1β; also called dAb ABT2-65

stoichiometry [13]: 2
stoichiometry [14]: 0.9
Kd [15]: 0.0887 nM and 0.0835 nM
koff [15]: 4.25e-05 s⁻¹ and 4.11e-05 s⁻¹
kon [15]: 479000 M⁻¹ s⁻¹ and 492000 M⁻¹ s⁻¹
Kd [16]: 0.446 nM and 0.361 nM
koff [16]: 0.000138 s⁻¹ and 0.000102 s⁻¹
kon [16]: 315000 M⁻¹ s⁻¹ and 283000 M⁻¹ s⁻¹
Kd ([16]; mean): 0.404 nM
koff ([16]; mean): 0.00012 s⁻¹
kon ([16]; mean): 299000 M⁻¹ s⁻¹
IL-1α IC50 [17]: 0.002 nM
IL-1β IC50 [18]: 0.0073 nM
IC50 (MRC-5 neutralization assay) [19]: < 0.001 nM
MRC-5 IL-1a inhibition assay EC50 [19]: 0.00446 nM
IC50 (MRC-5 neutralization assay) [20]: 0.00558 nM
stoichiometry [21]: 0.98
B7: ABT2-108-620x/ABT1-95-A3 hu IgG1/K mut (234; 235) (bispecific antibody, V domains shown)
VH: EVQLLESGGGLVQPGGSLRLSCAASGFTFAEESWMWVRQAPGKGLEWVSRIGQDGKNTYYREDVKGRFTISRDNSKNTLYLQMNSLRAEDTAVYYCAKYTGRIMGHHLFDYWGQGTLVTVSS
VL: DIQMTQSPSSLSASVGDRVTITCRASKPGVRNMRWYQQKPGKAPKLLIYSVSYLEPGVPSRFSGSGSGTDFTLTISSLQPEDFATYHCLQGYRWPPTFGQGTKVEIKR
notes: hu IgG1/K mut (234)

Kd [22]: 300 nM
koff [22]: 0.0039 s⁻¹
kon [22]: 13000 M⁻¹ s⁻¹
MRC5 ND50 [23]: 70 nM
MRC5 ND10 [2]: 10 nM
MRC5 ND50 [2]: 70 nM
B8: ABT1-141 (other)
VL: DIQMTQSPSSLSASVGDRVTITCRASQWIQKQLAWYQQKPGKAPKLLIYSSSYLQSGVPSRFSGSGSGTDFTLTISSLQPEDFATYYCQQHLRVPFTFGQGTKVEIKR
notes: dAb, Vκ, to IL-1α; also called dAb ABT1-141

Kd [28]: 1300 nM
koff [28]: 0.027 s⁻¹
kon [28]: 20000 M⁻¹ s⁻¹
MRC5 ND10 [4]: 50 nM
MRC5 ND50 [4]: 456 nM
B14: ABT2-76 (other)
VL: DIQMTQSPSSLSASVGDRVTITCRASQSIDRWLAWYQQKPGKAPKLLIYRGSILQSGVPSRFSGSGSGTDFTLTISSLQPEDFATYYCQQVAFWPPTFGQGTKVEIKR
notes: dAb, Vκ, to IL-1β; also called dAb ABT2-76

Kd [29]: 54000 nM
koff [29]: 0.13 s⁻¹
kon [29]: 2500 M⁻¹ s⁻¹
MRC5 ND10 [4]: 100 nM
MRC5 ND50 [4]: 770 nM
B15: ABT2-42 (other)
VL: DIQMTQSPSSLSASVGDRVTITCRASQYIEKWLTWYQQKPGKAPTLLIYRGSLLQSGVPSRFSGSGSGTDFTLTISSLQPEDFATYYCQQTEYWPFTFGQGTKVEIKR
notes: dAb, Vκ, to IL-1β; also called dAb ABT2-42
